The record followed here is patent US20220306690A1 (CURATORS OF THE UNIVERSITY OF MISSOURI, published 2022).

A word on the Kd: it is a measure of binding affinity in units of concentration. High values mean lower affinity, low ones higher affinity. Broadly, the EC50 (read off the curve) is the concentration at which the effect is half-maximal.

Test [1] has as its target T1, HIV-1 capsid protein (CA) hexamer (HIV-1, UniProt O12157 131-361, fluorescently labeled with Alexa Fluor 647 analog NT647 (site of labeling not stated)).
T1 construct: also called CA-hexamers
The test can be described thus: MicroScale Thermophoresis; 200 nM NT647-labeled CA-hexamers, Pep-2-cyclic titrated 1 nM to 2000 nM; fit to quadratic equation. On the technique in general: Microscale thermophoresis detects binding through changes in fluorescence in a small temperature gradient.

For test [2], the target named is T1, HIV-1 capsid protein (CA) hexamer. The test can be described thus: MicroScale Thermophoresis; Kd of Pep-2-cyclic (32 nM) against Kd of small molecule PF74 ([…] nM) on CA-hexamers.
Test [3] has the same target. The test can be described thus: MicroScale Thermophoresis (MST), 200 nM NT647-labelled CA-hexamers, Pep-2-cyclic titrated 1 nM to 2000 nM [B panel A].

B1: Pep-2-cyclic: Cyc(SGVFTFGPVNFPG) (peptide)
peptide: SGVFTFGPVNFPG
modifications: head-to-tail cyclic: cyclized by coupling the C-terminal carboxylic acid and the N-terminal amino group
Consider B1, for which, in test [1], binding was characterised by a dissociation constant (Kd) of 32 nM. The “fold greater affinity than PF74” value in test [2] was around 7 fold. For the same molecule, the “EC50 (read off the curve)” value in test [3] was around 70 nM.
